Measurements taken from patent US20100260668A1 (published 2010).

Biological target: T1, VEGF (UniProt P15692-4 27-191)
T1 construct: Bought reagent; also called vascular endothelial growth factor
Assay: SPR (Biacore), DVD-Ig captured, VEGF in solution

T1 sequence (P15692 other isoform, or with tags, fused parts or gaps limits assumed): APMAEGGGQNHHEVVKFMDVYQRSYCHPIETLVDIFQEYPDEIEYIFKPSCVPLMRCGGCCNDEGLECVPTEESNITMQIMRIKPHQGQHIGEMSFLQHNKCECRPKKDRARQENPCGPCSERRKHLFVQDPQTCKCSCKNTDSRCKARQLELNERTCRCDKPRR

Binder | Kd [nM] | koff [s⁻¹] | kon [M⁻¹ s⁻¹]
DVD449 (bispecific antibody, human IgG1, kappa, DVD-Ig; N-term; VD AB069 (DLL4), C-term; VD AB070 (VEGF); HC linker long, LC linker long; also called DVD449H; DVD449L) heavy: not shown light: DIVMTQSPDSLAVSLGERATISCRASESVDNYGISFMKWFQQKPGQPPKLLIYAASNQGSGVPDRFSGSGSGTDFTLTISSLQAEDVAVYYCQQSKEVPWTFGGGTKVEIKRTVAAPSVFIFPPDIQMTQSPSSLSASVGDRVTITCRASQDVSTAVAWYQQKPGKAPKLLIYSASFLYSGVPSRFSGSGSGTDFTLTISSLQPEDFATYYCQQSYTTPPTFGQGTKVEIKRTVAAPSVFIFPPSDEQLKSGTASVVCLLNNFYPREAKVQWKVDNALQSGNSQESVTEQDSKDSTYSLSSTLTLSKADYEKHKVYACEVTHQGLSSPVTKSFNRGEC | 0.903 | 0.000208 | 230000
DVD461 (bispecific antibody, human IgG1, kappa, DVD-Ig; N-term; VD AB069 (DLL4), C-term; VD AB070 (VEGF); HC linker short, LC linker long; also called DVD461H; DVD461L) heavy: not shown light: DIVMTQSPDSLAVSLGERATISCRASESVDNYGISFMKWFQQKPGQPPKLLIYAASNQGSGVPDRFSGSGSGTDFTLTISSLQAEDVAVYYCQQSKEVPWTFGGGTKVEIKRTVAAPSVFIFPPDIQMTQSPSSLSASVGDRVTITCRASQDVSTAVAWYQQKPGKAPKLLIYSASFLYSGVPSRFSGSGSGTDFTLTISSLQPEDFATYYCQQSYTTPPTFGQGTKVEIKRTVAAPSVFIFPPSDEQLKSGTASVVCLLNNFYPREAKVQWKVDNALQSGNSQESVTEQDSKDSTYSLSSTLTLSKADYEKHKVYACEVTHQGLSSPVTKSFNRGEC | 0.75 | 0.000202 | 269000
DVD443 (bispecific antibody, human IgG1, kappa, DVD-Ig; N-term; VD AB069 (DLL4), C-term; VD AB070 (VEGF); HC linker short, LC linker short; also called DVD443H; DVD443L) heavy: not shown light: DIVMTQSPDSLAVSLGERATISCRASESVDNYGISFMKWFQQKPGQPPKLLIYAASNQGSGVPDRFSGSGSGTDFTLTISSLQAEDVAVYYCQQSKEVPWTFGGGTKVEIKRTVAAPDIQMTQSPSSLSASVGDRVTITCRASQDVSTAVAWYQQKPGKAPKLLIYSASFLYSGVPSRFSGSGSGTDFTLTISSLQPEDFATYYCQQSYTTPPTFGQGTKVEIKRTVAAPSVFIFPPSDEQLKSGTASVVCLLNNFYPREAKVQWKVDNALQSGNSQESVTEQDSKDSTYSLSSTLTLSKADYEKHKVYACEVTHQGLSSPVTKSFNRGEC | 1.71 | 0.000267 | 157000
DVD455 (bispecific antibody, human IgG1, kappa, DVD-Ig; N-term; VD AB069 (DLL4), C-term; VD AB070 (VEGF); HC linker long, LC linker short; also called DVD455H; DVD455L) heavy: not shown light: DIVMTQSPDSLAVSLGERATISCRASESVDNYGISFMKWFQQKPGQPPKLLIYAASNQGSGVPDRFSGSGSGTDFTLTISSLQAEDVAVYYCQQSKEVPWTFGGGTKVEIKRTVAAPDIQMTQSPSSLSASVGDRVTITCRASQDVSTAVAWYQQKPGKAPKLLIYSASFLYSGVPSRFSGSGSGTDFTLTISSLQPEDFATYYCQQSYTTPPTFGQGTKVEIKRTVAAPSVFIFPPSDEQLKSGTASVVCLLNNFYPREAKVQWKVDNALQSGNSQESVTEQDSKDSTYSLSSTLTLSKADYEKHKVYACEVTHQGLSSPVTKSFNRGEC | 0.46 | 8.15e-05 | 177000
DVD465 (bispecific antibody, human IgG1, kappa, DVD-Ig; N-term; VD AB015 (DLL4), C-term; VD AB070 (VEGF); HC linker short, LC linker short; also called DVD465H; DVD465L) heavy: not shown light: DIQMTQSPSSLSASVGDRVTITCRASQDVSTAVAWYQQKPGKAPKLLIYSASFLYSGVPSRFSGSGSGTDFTLTISSLQPEDFATTYYCQQSYTGTVTFGQGTKVEIKRTVAAPDIQMTQSPSSLSASVGDRVTITCRASQDVSTAVAWYQQKPGKAPKLLIYSASFLYSGVPSRFSGSGSGTDFTLTISSLQPEDFATYYCQQSYTTPPTFGQGTKVEIKRTVAAPSVFIFPPSDEQLKSGTASVVCLLNNFYPREAKVQWKVDNALQSGNSQESVTEQDSKDSTYSLSSTLTLSKADYEKHKVYACEVTHQGLSSPVTKSFNRGEC | 1.19 | 0.000414 | 348000
DVD477 (bispecific antibody, human IgG1, kappa, L234A L235A, DVD-Ig; N-term; VD AB015 (DLL4), C-term; VD AB070 (VEGF); HC linker long, LC linker short; also called DVD477H; DVD477L) heavy: not shown light: DIQMTQSPSSLSASVGDRVTITCRASQDVSTAVAWYQQKPGKAPKLLIYSASFLYSGVPSRFSGSGSGTDFTLTISSLQPEDFATTYYCQQSYTGTVTFGQGTKVEIKRTVAAPDIQMTQSPSSLSASVGDRVTITCRASQDVSTAVAWYQQKPGKAPKLLIYSASFLYSGVPSRFSGSGSGTDFTLTISSLQPEDFATYYCQQSYTTPPTFGQGTKVEIKRTVAAPSVFIFPPSDEQLKSGTASVVCLLNNFYPREAKVQWKVDNALQSGNSQESVTEQDSKDSTYSLSSTLTLSKADYEKHKVYACEVTHQGLSSPVTKSFNRGEC | 1.02 | 0.000254 | 249000
DVD471 (bispecific antibody, human IgG1, kappa, L234A L235A, DVD-Ig; N-term; VD AB015 (DLL4), C-term; VD AB070 (VEGF); HC linker long, LC linker long; also called DVD471H; DVD471L) heavy: not shown light: DIQMTQSPSSLSASVGDRVTITCRASQDVSTAVAWYQQKPGKAPKLLIYSASFLYSGVPSRFSGSGSGTDFTLTISSLQPEDFATTYYCQQSYTGTVTFGQGTKVEIKRTVAAPSVFIFPPDIQMTQSPSSLSASVGDRVTITCRASQDVSTAVAWYQQKPGKAPKLLIYSASFLYSGVPSRFSGSGSGTDFTLTISSLQPEDFATYYCQQSYTTPPTFGQGTKVEIKRTVAAPSVFIFPPSDEQLKSGTASVVCLLNNFYPREAKVQWKVDNALQSGNSQESVTEQDSKDSTYSLSSTLTLSKADYEKHKVYACEVTHQGLSSPVTKSFNRGEC | 0.917 | 0.000232 | 253000

The remaining lines, values ahead:

Kd [nM] | koff [s⁻¹] | kon [M⁻¹ s⁻¹] | Binder
0.449 | 0.000168 | 374000 | DVD534 (bispecific antibody, human IgG1, kappa, lambda, L234A L235A, DVD-Ig; N-term; VD AB071 (VEGF), C-term; VD AB073 (DLL4); HC linker short, LC linker long; also called DVD534H; DVD534L) heavy: not shown light: DIQMTQSPSSLSASVGDRVTITCRASQVIRRSLAWYQQKPGKAPKLLIYAASNLASGVPSRFSGSGSGTDFTLTISSLQPEDFATYYCQQSNTSPLTFGQGTKVEIKRTVAAPSVFIFPPQAVVTQESALTTSPGETVTLTCRSSTGAVTTSNYANWVQEKPDHLFTGLIGGTNNRAPGVPARFSGSLIGDKAALTITGAQTEDEAIYFCALWYSNHWVFGGGTKLTVLGQPKAAPSVTLFPPSSEELQANKATLVCLISDFYPGAVTVAWKADSSPVKAGVETTTPSKQSNNKYAASSYLSLTPEQWKSHRSYSCQVTHEGSTVEKTVAPTECS
0.413 | 0.00016 | 388000 | DVD528 (bispecific antibody, human IgG1, lambda, DVD-Ig; N-term; VD AB071 (VEGF), C-term; VD AB073 (DLL4); HC linker long, LC linker short; also called DVD528H; DVD528L) heavy: not shown light: DIQMTQSPSSLSASVGDRVTITCRASQVIRRSLAWYQQKPGKAPKLLIYAASNLASGVPSRFSGSGSGTDFTLTISSLQPEDFATYYCQQSNTSPLTFGQGTKVEIKRTVAAPQAVVTQESALTTSPGETVTLTCRSSTGAVTTSNYANWVQEKPDHLFTGLIGGTNNRAPGVPARFSGSLIGDKAALTITGAQTEDEAIYFCALWYSNHWVFGGGTKLTVLGQPKAAPSVTLFPPSSEELQANKATLVCLISDFYPGAVTVAWKADSSPVKAGVETTTPSKQSNNKYAASSYLSLTPEQWKSHRSYSCQVTHEGSTVEKTVAPTECS
0.176 | 2.85e-05 | 162000 | DVD498 (bispecific antibody, human IgG1, kappa, DVD-Ig; N-term; VD AB071 (VEGF), C-term; VD AB072 (DLL4); HC linker long, LC linker long; also called DVD498H; DVD498L) heavy: not shown light: DIQMTQSPSSLSASVGDRVTITCRASQVIRRSLAWYQQKPGKAPKLLIYAASNLASGVPSRFSGSGSGTDFTLTISSLQPEDFATYYCQQSNTSPLTFGQGTKVEIKRTVAAPSVFIFPPDIQMTQSSSYLSVSLGGRVTITCKASDHINNWLAWYQQKPGNAPRLLISGATSLETGVPSRFSGSGSGKDYTLSITSLQTEDVATYYCQQYWSIPLTFGAGTKLELKRTVAAPSVFIFPPSDEQLKSGTASVVCLLNNFYPREAKVQWKVDNALQSGNSQESVTEQDSKDSTYSLSSTLTLSKADYEKHKVYACEVTHQGLSSPVTKSFNRGEC
0.0733 | 1.2e-05 | 164000 | DVD510 (bispecific antibody, human IgG1, kappa, DVD-Ig; N-term; VD AB071 (VEGF), C-term; VD AB072 (DLL4); HC linker short, LC linker long; also called DVD510H; DVD510L) heavy: not shown light: DIQMTQSPSSLSASVGDRVTITCRASQVIRRSLAWYQQKPGKAPKLLIYAASNLASGVPSRFSGSGSGTDFTLTISSLQPEDFATYYCQQSNTSPLTFGQGTKVEIKRTVAAPSVFIFPPDIQMTQSSSYLSVSLGGRVTITCKASDHINNWLAWYQQKPGNAPRLLISGATSLETGVPSRFSGSGSGKDYTLSITSLQTEDVATYYCQQYWSIPLTFGAGTKLELKRTVAAPSVFIFPPSDEQLKSGTASVVCLLNNFYPREAKVQWKVDNALQSGNSQESVTEQDSKDSTYSLSSTLTLSKADYEKHKVYACEVTHQGLSSPVTKSFNRGEC
0.0499 | 7.6e-06 | 152000 | DVD492 (bispecific antibody, human IgG1, kappa, DVD-Ig; N-term; VD AB071 (VEGF), C-term; VD AB072 (DLL4); HC linker short, LC linker short; also called DVD492H; DVD492L) heavy: not shown light: DIQMTQSPSSLSASVGDRVTITCRASQVIRRSLAWYQQKPGKAPKLLIYAASNLASGVPSRFSGSGSGTDFTLTISSLQPEDFATYYCQQSNTSPLTFGQGTKVEIKRTVAAPDIQMTQSSSYLSVSLGGRVTITCKASDHINNWLAWYQQKPGNAPRLLISGATSLETGVPSRFSGSGSGKDYTLSITSLQTEDVATYYCQQYWSIPLTFGAGTKLELKRTVAAPSVFIFPPSDEQLKSGTASVVCLLNNFYPREAKVQWKVDNALQSGNSQESVTEQDSKDSTYSLSSTLTLSKADYEKHKVYACEVTHQGLSSPVTKSFNRGEC
0.000941 | 1.52e-07 | 162000 | DVD504 (bispecific antibody, human IgG1, kappa, DVD-Ig; N-term; VD AB071 (VEGF), C-term; VD AB072 (DLL4); HC linker long, LC linker short; also called DVD504H; DVD504L) heavy: not shown light: DIQMTQSPSSLSASVGDRVTITCRASQVIRRSLAWYQQKPGKAPKLLIYAASNLASGVPSRFSGSGSGTDFTLTISSLQPEDFATYYCQQSNTSPLTFGQGTKVEIKRTVAAPDIQMTQSSSYLSVSLGGRVTITCKASDHINNWLAWYQQKPGNAPRLLISGATSLETGVPSRFSGSGSGKDYTLSITSLQTEDVATYYCQQYWSIPLTFGAGTKLELKRTVAAPSVFIFPPSDEQLKSGTASVVCLLNNFYPREAKVQWKVDNALQSGNSQESVTEQDSKDSTYSLSSTLTLSKADYEKHKVYACEVTHQGLSSPVTKSFNRGEC
0.963 | 0.000872 | 905000 | DVD483 (bispecific antibody, human IgG1, kappa, DVD-Ig; N-term; VD AB015 (DLL4), C-term; VD AB070 (VEGF); HC linker short, LC linker long; also called DVD483H; DVD483L) heavy: not shown light: DIQMTQSPSSLSASVGDRVTITCRASQDVSTAVAWYQQKPGKAPKLLIYSASFLYSGVPSRFSGSGSGTDFTLTISSLQPEDFATTYYCQQSYTGTVTFGQGTKVEIKRTVAAPSVFIFPPDIQMTQSPSSLSASVGDRVTITCRASQDVSTAVAWYQQKPGKAPKLLIYSASFLYSGVPSRFSGSGSGTDFTLTISSLQPEDFATYYCQQSYTTPPTFGQGTKVEIKRTVAAPSVFIFPPSDEQLKSGTASVVCLLNNFYPREAKVQWKVDNALQSGNSQESVTEQDSKDSTYSLSSTLTLSKADYEKHKVYACEVTHQGLSSPVTKSFNRGEC
